The source of these data is patent US20160032001A1 (APEXIGEN, published 2016).

Where a chain is given by its changes, count along the chain named. Read-outs that look alike come from different tables or passages of the source.

What is called IC50 is the midpoint of a concentration-inhibition curve. The term EC50 denotes the concentration that produces a half-maximal response. Read a low EC50 as greater potency. As usually defined, the Kd is the concentration at which binding is half-saturated. A low value points to higher affinity. As a reminder, the koff is the rate constant with which the complex falls apart. High values mean a short-lived complex, low ones a long-lived complex. The kon is the rate constant with which the complex forms.

Assay [1] addresses T1, human RANKL protein (human, UniProt O14788 140-317, limits assumed).
T1 sequence (looked up): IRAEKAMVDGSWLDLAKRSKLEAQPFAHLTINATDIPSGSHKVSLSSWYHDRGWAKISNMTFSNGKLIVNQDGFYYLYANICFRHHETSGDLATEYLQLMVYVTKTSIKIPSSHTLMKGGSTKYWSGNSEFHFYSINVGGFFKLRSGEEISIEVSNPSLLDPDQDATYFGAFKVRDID
As to the kind of experiment: competition ELISA: RANKL (0.5 ug/ml) pre-incubated with the antibody, then binding to coated human RANK (8 ug/ml) detected; blocked partner RANK. (In general: In an ELISA, binding on a coated surface is turned into a signal by an enzyme label.)

Assay [2] concerns the target T2, RANKL expressed on the surface of 293 cells (UniProt O14788 1-317, limits assumed).
T2 construct: whole, on cells; also called RANKL-transfected 293 cells; cells expressing RANKL
T2 sequence (looked up): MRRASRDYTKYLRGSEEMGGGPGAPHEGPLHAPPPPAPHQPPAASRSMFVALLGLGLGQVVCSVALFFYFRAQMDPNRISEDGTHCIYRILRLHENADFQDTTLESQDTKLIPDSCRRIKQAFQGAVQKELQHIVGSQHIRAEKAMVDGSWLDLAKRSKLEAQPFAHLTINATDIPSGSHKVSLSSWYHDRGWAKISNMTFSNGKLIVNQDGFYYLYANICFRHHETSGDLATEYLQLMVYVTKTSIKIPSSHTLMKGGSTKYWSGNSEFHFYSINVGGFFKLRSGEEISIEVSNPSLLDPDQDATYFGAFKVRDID
As to the kind of experiment: flow cytometry (MFI) on RANKL-transfected 293 cells.

Assay [3] concerns the target T2, RANKL expressed on the surface of 293 …. The description is as above. The source holds these as a separate data set.
Assay [4] deals with T1, human RANKL protein. As to the kind of experiment: competition ELISA: RANKL (0.5 ug/ml) pre-incubated with the antibody, then binding to coated human RANK (8 ug/ml) detected; blocked partner RANK. The source holds these as a separate data set.
Assay [5] has as its target T2, RANKL expressed on the surface of 293 …. As to the kind of experiment: flow cytometry (MFI) on RANKL-transfected 293 cells. The source holds these as a separate data set. A general note: A flow cytometer gives signals particle by particle.
The target in assay [6] is T1, human RANKL protein. As to the kind of experiment: competition ELISA: RANKL (0.5 ug/ml) pre-incubated with the antibody, then binding to coated human RANK (8 ug/ml) detected; blocked partner RANK. The source holds these as a separate data set.
In assay [7] the target is T1, human RANKL protein. As to the kind of experiment: cell-based or functional assay.
The target of assay [8] is T2, RANKL expressed on the surface of 293 …. As to the kind of experiment: flow cytometry (MFI) on RANKL-transfected 293 cells. This is another data set of the same source.
For assay [9], the target named is T1, human RANKL protein. As to the kind of experiment: competition ELISA: RANKL (0.5 ug/ml) pre-incubated with the antibody, then binding to coated human RANK (8 ug/ml) detected; blocked partner RANK. The source holds these as a separate data set.
Assay [10] has as its target T1, human RANKL protein. As to the kind of experiment: surface plasmon resonance.

B1: clone 210 rabbit anti-RANKL antibody (antibody, V domains shown)
VH: QSVKESGGGLVTPGGTLTLTCTASGFSLSNNAMSWVRQAPGKGLEWIGYIYPGGSPYYANWAKGRFTISRTSTTVDLKMTSLTTEDTATYFCARHVSDGGWYLYIWGPGTLVTVSL
VL: DMIQTPASVEVAVGGTVTINCQASQSIGSNLAWYQQKPGQPPKLLIYGASTLASGVPSRFKGSGSGTQFTFTISDVECTAAATYYCQQAYSISNVDNAFGGGTEVVVK
On to B1, for which, in assay [1], the half-inhibitory concentration (IC50) was determined as 0.071 µg/mL. Further, a half-maximal effect in assay [2] (EC50) was put at 0.292 µg/mL.

B2: clone 447 rabbit anti-RANKL antibody (antibody, V domains shown)
VH: QEQLKESGGGLVTPGGILTLTCTASGFSLRSNAMSWVRQAPGKGLEWIGYIYPGGAPHYASWAKGRFTISRNSTTVDLKMTSLTTEDTATYFCARHVSGGGWYLDIWGPGTLVTVSL
VL: B1 VL with A12G, S26N, L44F, P57S, Q68R, A80D, I92V, S93G
B2: the EC50 in assay [3] amounted to 0.0617 µg/mL. In [4], the IC50 was determined as 0.0537 µg/mL.

B3: clone 174 rabbit anti-RANKL antibody (antibody, V domains shown)
VH: QEQLQESGGGLITPGGTLTLTCTASGFSFNRNALSWVRQAPGKGLEWIGYIYSGGSPYYANWAKGRFNVSRTSTTVDLRMTSLTTEDTATYFCARHVSGGGWYLDIWGPGTLVTVSL
VL: B1 VL with S26N, A49T, P57S, S65F, A80D
B3 yielded an IC50 in [1] of 0.0762 µg/mL. For the same molecule, the EC50 in assay [2] was found to be 0.13 µg/mL.

B4: clone 420 rabbit anti-RANKL antibody (antibody, V domains shown)
VH: B2 VH
VL: B1 VL with A12G, S26N, L44F, P57S, Q68R, A80D, I92V, S93G
In turn, B4 displayed an EC50 in [3] of 0.215 µg/mL. This molecule registered an IC50 in assay [4] of 0.0754 µg/mL.

B5: clone 416 rabbit anti-RANKL antibody (antibody, V domains shown)
VH: B1 VH with A23V, N30R, A39T, P52S, G54S, Y104D, T113A
VL: B1 VL with A12V, I19F, S26N, G48S, A80D
With B5, in [3], the midpoint of the response, the EC50, lay at 0.203 µg/mL. The IC50 in [4] was determined as 0.138 µg/mL.

B6: clone 388 rabbit anti-RANKL antibody (antibody, V domains shown)
VH: QSVEESGGRLVTPGTPLTLTCTVSGFSLSSGVVSWVRQAPGKGLEWIGYAWSGGPTYYANWAKGRFTISKSSTTVDLKITSPTTADTATYFCARGYNGMDPWGPGTLVTVSS
VL: DMTQTPASVEVAVGGTVTIKCQASQNIGSNLAWYQQKPGQPPKLLIYKASTLASGVPSRFRGSGSGTEFTLAISDLECADAATYYCQQGYTTKDVVNPFGGGTEVVVK
Molecule B6 came in with an EC50 in [5] of 0.665 µg/mL. Also, in [6], the IC50 came out at 0.161 µg/mL.

B7: clone 411 rabbit anti-RANKL antibody (antibody, V domains shown)
VH: B6 VH
VL: B6 VL
As for B7, in [3], a half-maximal response (EC50) required 0.108 µg/mL. For the same molecule, in assay [4], the IC50 was 0.0771 µg/mL.

B8: clone 383 rabbit anti-RANKL antibody (antibody, V domains shown)
VH: QSLEESGGDLVKPGASLTLTCTASGFSFSRYVCWVRQAPGKGLEWIGCIAAGSSGYTYYASWAKGRLTISKTSSTTLTLQMTSLTVADTATYFCARSGDSYVGYFNLWGPGTLVTVSS
VL: IVMTQTPASVEAAVGGTVTIKCQASQNIYNYLAWYQQQPGQPPKLLIYSASNLASGVSSRFKGSGSGTEFTLTISDLECGDAATYYCQSYYDSSRISYGSAFGGGTEVVVK
Consider B8, for which the “IC50 in a RAW cell assay (TRAP activity, OD 405 nM)” value in [7] was 0.002 µg/mL. This molecule also came in with an EC50 in assay [5] of 0.15 µg/mL. In [6], this molecule had a half-inhibitory concentration (IC50) of 0.0621 µg/mL.

B9: clone EBI-51-4 rabbit anti-RANKL antibody (antibody, V domains shown)
VH: QSVEESGGRLVKPGESLTLTCTASGFSLSSDVISWVRQAPGKGLEWIGYGWSGGPTYYANWAKGRFTISKTSSTTVDLKITSPTTEDTATYFCARGFNPFDPWGPGTLVTVSS
VL: DMTQTPASVSEPVGGTVTIKCQASQNIGSNLAWYQQKPGQRPKLLIYRASTLASGVSSRFKGSGSGTQFTLTISDLECADAATYYCQQGYSAGNVDNSFGGGTEVVVK
In the case of B9, a half-maximal effect in assay [8] (EC50) was put at 0.078 µg/mL. Further, in [9], the IC50 amounted to 0.0388 µg/mL.

B10: clone 327 rabbit anti-RANKL antibody (antibody, V domains shown)
VH: QSLEESGGRLVTPGTPLTLTCTVSGFSLSKYEINWVRQAPGKGLEWIGYIDVGSGTWYASWAKGRFTISKTSTTVALRITSPTTEDTATYFCSRQYNPMDLWGPGTLVTVSS
VL: DMTQTPASVEAAVGGTVTIKCQASQNIGSNLAWYQQKPGQRPKLLIYSASTLASGVPSRFKGSGSGTQFTLTISGVQCDDAATYYCQQGYSVGNVNNAFGGGTEVVVK
With B10, the “IC50 in a RAW cell assay (TRAP activity, OD 405 nM)” value in [7] was 0.0075 µg/mL. Further, the EC50 in [5] is 0.0871 µg/mL. The same molecule displayed a concentration for half-maximal inhibition (IC50) in [6] of 0.0416 µg/mL. In assay [10], this molecule displayed a Kd of 2.13 nM, an off-rate constant (koff) of 0.0003 s⁻¹ and an on-rate constant (kon) of 141000 M⁻¹ s⁻¹.

B11: clone EBI-51-23 rabbit anti-RANKL antibody (antibody, V domains shown)
VH: QSVKESEGGLFKPTDTLTLTCTVSGFSLSIYEISWVRQAPGKELEWIGYIGVGGVTYYANWAKSRSTITRNTNQKMVALKMTSLTAADTATYFCARGYNPFDLWGPGTLVTVSS
VL: B10 VL with A11V, K20N, R41P, S48K, F60L, Q68E, S91T, V92T, N96D, A98P
In the case of B11, the EC50 in assay [8] turned out to be 0.156 µg/mL. The same molecule displayed a 50% inhibitory concentration (IC50) in [9] of 0.0482 µg/mL.

B12: clone 415 rabbit anti-RANKL antibody (antibody, V domains shown)
VH: B10 VH with L3V, T15G, P16S, K30N, I33M, A76D, R78K
VL: B10 VL with A11V
Molecule B12 returned an EC50 in assay [3] of 0.16 µg/mL. Also, the IC50 in [4] was determined as 0.0545 µg/mL.

B13: clone EBI-51-11 rabbit anti-RANKL antibody (antibody, V domains shown)
VH: QSVEESGGRLITPGTPLTLTCTVSGFSLSTDVVSWVRQAPGTGLEWIGYTWSGGSTYYAIWAKGRFTISKTSSTTVDLKITSPTTEDTATYFCARGFNPFDPWGPGTLVTVSS
VL: DMTQTPASVSEPVGGTVTIKCQASQNIGSNLAWYQQKPGQRPKLLIYRASTLASGVSSRFKGSGSGTQFTLTISDLECADAATYYCQQGYSAGNVDKHVFGGGTEVVVK
Consider B13, for which the midpoint of the response in [8], the EC50, lay at 0.0757 µg/mL. In [9], the IC50 turned out to be 0.0656 µg/mL.

B14: clone EBI-51-1 rabbit anti-RANKL antibody (antibody, V domains shown)
VH: QEQLEESGGGLVKPEGSLTLTCTASGFDLSTYYYMCWVRQAPGKGLEWIACIYTGRASTYYATWAKGRFTISKTSSTTVTLQMTSLTAADTATFFCASKAGDIWYYGMDLWGPGTLVTVSS
VL: B13 VL with K97N, H98N, V99T
With B14, in [8], the EC50 came out at 0.0867 µg/mL. Moreover, the IC50 in assay [9] was 0.0753 µg/mL.

B15: clone EBI-51-2 rabbit anti-RANKL antibody (antibody, V domains shown)
VH: B13 VH with V3L, I11V, V23A, S27T, L28I, V33I, T42K, I60N, I68L, T85I
VL: B9 VL with T3I, K20V, L31F, R41P, S65F, S98N
For B15, the EC50 in assay [8] came out at 0.0621 µg/mL. In addition, the IC50 in assay [9] amounted to 0.0389 µg/mL.
